Laboratory results taken from US20240132591A1.
Where two headings read alike, the source gives them in different places.

Assays:
Experiment in all cases: ELISA on insulin-coated plate, 100 nM
[1] = biological target: Insulin (UniProt P01308)
[2] = biological target: Insulin (UniProt P01308); remark: listed apart in the source
[3] = biological target: Insulin (UniProt P01308); remark: listed apart in the source
[4] = biological target: Insulin (UniProt P01308); remark: listed apart in the source
[5] = biological target: Insulin (UniProt P01308); remark: listed apart in the source
[6] = biological target: Insulin (UniProt P01308); remark: listed apart in the source

Row | Insulin polyreactivity score [1] | Insulin polyreactivity score [2] | Insulin polyreactivity score [3] | Insulin polyreactivity score [4] | Insulin polyreactivity score [5] | Insulin polyreactivity score [6] | Substance
1 | 1.52 | 7.93 | 69.2 | 69.2 | 7.87 | 21.3 | Lenzilumab (antibody)
2 | 1 | 1.09 | 3.43 | – | 1.01 | 1.25 | Elotuzumab (antibody)
